Source: paper PMC4633990

Experiments:
[1] = molecular target: HIV-1 Env of strain AC10.29 (clade B) on pseudovirus AC10.29.SG3 (HIV-1 AC10.29 (clade B))
[2] = molecular target: HIV-1 Env of strain ZM53.12 (clade C) on pseudovirus ZM53.12.SG3 (HIV-1 ZM53.12 (clade C))
[3] = molecular target: HIV-1 Env on HIV-1 IIIb-infected CEM-NKr-CCR5 cells (CEM-IIIb) (HIV-1 IIIb) (UniProt P04578)

Work on “VRC07-αCD3 bispecific immunomodulatory protein (bispecific antibody)” yielded an IC50 of neutralisation of Env-pseudotyped virus AC10.29.SG3 (clade B), TZM-bl target cells, luciferase [1] of 0.346 µg/mL, an IC50 of neutralisation of Env-pseudotyped virus ZM53.12.SG3 (clade C), TZM-bl target cells, luciferase [2] of 0.24 µg/mL and an IFN-γ intracellular cytokine staining of human CD4 T cells co-cultured with HIV-infected CEM cells and 0.5 μg ml^−1 protein, relative to unstimulated CD4 T cells (1.4-fold in the absence of HIV-1) [3] of 9 fold.
